# IntAct's records for PubMed 31515488
# B1: Maspardin (Homo sapiens), Q9NZD8 (parent)
# chain: MGEIKVSPDYNWFRGTVPLKKIIVDDDDSKIWSLYDAGPRSIRCPLIFLPPVSGTADVFFRQILALTGWGYRVIALQYPVYWDHLEFCDGFRKLLDHLQLDKVHLFGASLGGFLAQKFAEYTHKSPRVHSLILCNSFSDTSIFNQTWTANSFWLMPAFMLKKIVLGNFSSGPVDPMMADAIDFMVDRLESLGQSELASRLTLNCQNSYVEPHKIRDIPVTIMDVFDQSALSTEAKEEMYKLYPNARRAHLKTGGNFPYLCRSAEVNLYVQIHLLQFHGTKYAAIDPSMVSAEELEVQKGSLGISQEEQ
# B2: Isoform 1 of Zinc finger protein 18 (Homo sapiens), P17022-1 (parent)
# chain: MPVDLGQALGLLPSLAKAEDSQFSESDAALQEELSSPETARQLFRQFRYQVMSGPHETLKQLRKLCFQWLQPEVHTKEQILEILMLEQFLTILPGEIQMWVRKQCPGSGEEAVTLVESLKGDPQRLWQWISIQVLGQDILSEKMESPSCQVGEVEPHLEVVPQELGLENSSSGPGELLSHIVKEESDTEAELALAASQPARLEERLIRDQDLGASLLPAAPQEQWRQLDSTQKEQYWDLMLETYGKMVSGAGISHPKSDLTNSIEFGEELAGIYLHVNEKIPRPTCIGDRQENDKENLNLENHRDQELLHASCQASGEVPSQASLRGFFTEDEPGCFGEGENLPEALQNIQDEGTGEQLSPQERISEKQLGQHLPNPHSGEMSTMWLEEKRETSQKGQPRAPMAQKLPTCRECGKTFYRNSQLIFHQRTHTGETYFQCTICKKAFLRSSDFVKHQRTHTGEKPCKCDYCGKGFSDFSGLRHHEKIHTGEKPYKCPICEKSFIQRSNFNRHQRVHTGEKPYKCSHCGKSFSWSSSLDKHQRSHLGKKPFQ
# B3: Zinc finger protein with KRAB and SCAN domains 4 (Homo sapiens), Q969J2 (parent)
# chain: MAREPRKNAALDAQSAEDQTGLLTVKVEKEEASALTAEVRAPCSPARGPERSRQRFRGFRYPEAAGPREALSRLRELCGQWLQPEMHSKEQILELLVLEQFLTILPGNLQSWVREQHPESGEEVVVLLEYLERQLDEPAPQVPVGDQGQELLCCKMALLTQTQGSQSSQCQPMKALFKHESLGSQPLHDRVLQVPGLAQGGCCREDAMVASRLTPGSQGLLKMEDVALTLTPGWTQLDSSQVNLYRDEKQENHSSLVSLGGEIQTKSRDLPPVKKLPEKEHGKICHLREDIAQIPTHAEAGEQEGRLQRKQKNAIGSRRHYCHECGKSFAQSSGLTKHRRIHTGEKPYECEDCGKTFIGSSALVIHQRVHTGEKPYECEECGKVFSHSSNLIKHQRTHTGEKPYECDDCGKTFSQSCSLLEHHKIHTGEKPYQCNMCGKAFRRNSHLLRHQRIHGDKNVQNPEHGESWESQGRTESQWENTEAPVSYKCNECERSFTRNRSLIEHQKIHTGEKPYQCDTCGKGFTRTSYLVQHQRSHVGKKTLSQ
# Variants of: B1
# Conditions: with rtn4_human RTN4, Q9NQC3
row,Variant,effect of a mutation on the interaction
1,A180T,with no effect

# Variants of: B1
# Conditions: with cryaa_human CRYAA
row,Variant,effect of a mutation on the interaction
1,A180T,disrupting interaction strength
2,H272D,disrupting interaction strength

# Variants of: B1
# Conditions: with reep6_human REEP6, Q96HR9
# reep6_human REEP6, Q96HR9, sequence (Q96HR9 whole entry): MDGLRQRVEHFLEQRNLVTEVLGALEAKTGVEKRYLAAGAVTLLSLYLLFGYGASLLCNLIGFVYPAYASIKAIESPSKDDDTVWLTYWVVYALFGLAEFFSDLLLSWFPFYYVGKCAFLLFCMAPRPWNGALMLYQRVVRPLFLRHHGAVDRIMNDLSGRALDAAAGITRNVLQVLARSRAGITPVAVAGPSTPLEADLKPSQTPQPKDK
row,Variant,effect of a mutation on the interaction
1,A180T,with no effect

# Variants of: B1
# Conditions: with traf2_human TRAF2, Q12933
# traf2_human TRAF2, Q12933, sequence (Q12933 whole entry): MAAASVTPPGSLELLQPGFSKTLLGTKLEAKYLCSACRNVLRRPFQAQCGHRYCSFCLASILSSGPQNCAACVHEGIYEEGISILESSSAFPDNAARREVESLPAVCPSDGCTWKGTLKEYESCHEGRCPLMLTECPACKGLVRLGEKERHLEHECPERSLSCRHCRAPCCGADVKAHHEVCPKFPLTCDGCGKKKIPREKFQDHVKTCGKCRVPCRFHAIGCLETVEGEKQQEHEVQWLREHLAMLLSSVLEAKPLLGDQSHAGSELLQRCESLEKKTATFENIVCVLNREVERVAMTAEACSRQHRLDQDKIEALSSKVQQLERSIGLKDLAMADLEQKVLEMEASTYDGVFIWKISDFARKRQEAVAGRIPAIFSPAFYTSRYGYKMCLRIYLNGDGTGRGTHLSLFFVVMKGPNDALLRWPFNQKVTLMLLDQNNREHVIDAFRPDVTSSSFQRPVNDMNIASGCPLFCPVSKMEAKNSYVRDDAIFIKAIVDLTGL
row,Variant,effect of a mutation on the interaction
1,A180T,with no effect
2,H272D,disrupting interaction strength

# Variants of: B1
# Conditions: with spre2_human SPRED2, Q7Z698
# spre2_human SPRED2, Q7Z698, sequence (Q7Z698 whole entry): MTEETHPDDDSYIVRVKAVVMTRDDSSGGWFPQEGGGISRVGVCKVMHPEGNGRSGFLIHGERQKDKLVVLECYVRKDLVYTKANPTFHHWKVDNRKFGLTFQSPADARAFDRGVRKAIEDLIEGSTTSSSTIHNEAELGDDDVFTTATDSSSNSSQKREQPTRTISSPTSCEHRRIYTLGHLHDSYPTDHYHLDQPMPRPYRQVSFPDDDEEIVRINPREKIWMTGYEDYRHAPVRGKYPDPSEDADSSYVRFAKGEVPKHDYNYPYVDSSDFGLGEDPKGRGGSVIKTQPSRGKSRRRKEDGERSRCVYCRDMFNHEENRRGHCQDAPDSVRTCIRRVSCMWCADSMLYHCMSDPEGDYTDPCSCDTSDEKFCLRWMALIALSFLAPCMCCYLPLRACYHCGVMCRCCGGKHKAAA
row,Variant,effect of a mutation on the interaction
1,A180T,with no effect

# Variants of: B1
# Conditions: with htf4_human TCF12, Q99081
# htf4_human TCF12, Q99081, sequence (Q99081 whole entry): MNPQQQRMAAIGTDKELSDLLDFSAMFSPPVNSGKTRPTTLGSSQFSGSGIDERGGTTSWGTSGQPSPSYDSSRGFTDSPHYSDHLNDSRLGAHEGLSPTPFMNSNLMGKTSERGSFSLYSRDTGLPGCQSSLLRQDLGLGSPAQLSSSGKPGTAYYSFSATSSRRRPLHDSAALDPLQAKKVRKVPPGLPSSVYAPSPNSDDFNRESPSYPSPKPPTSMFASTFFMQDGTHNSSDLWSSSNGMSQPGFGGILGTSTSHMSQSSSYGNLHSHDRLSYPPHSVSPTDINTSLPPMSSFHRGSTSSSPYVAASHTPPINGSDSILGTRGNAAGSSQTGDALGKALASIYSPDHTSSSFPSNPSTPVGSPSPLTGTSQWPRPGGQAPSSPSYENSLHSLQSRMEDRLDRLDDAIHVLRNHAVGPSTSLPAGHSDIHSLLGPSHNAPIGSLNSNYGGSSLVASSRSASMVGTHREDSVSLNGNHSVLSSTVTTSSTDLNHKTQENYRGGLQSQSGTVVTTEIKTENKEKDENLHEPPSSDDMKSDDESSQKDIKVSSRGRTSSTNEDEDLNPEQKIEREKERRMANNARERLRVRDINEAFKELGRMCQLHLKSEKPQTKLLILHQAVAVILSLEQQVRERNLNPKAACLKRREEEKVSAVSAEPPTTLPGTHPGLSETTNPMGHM
row,Variant,effect of a mutation on the interaction
1,A180T,with no effect
2,H272D,disrupting interaction strength

# Variants of: B1
# Conditions: with atrap_human AGTRAP
row,Variant,effect of a mutation on the interaction
1,A180T,with no effect

# Variants of: B1
# Conditions: with akir2_human AKIRIN2, Q53H80
# akir2_human AKIRIN2, Q53H80, sequence (Q53H80 whole entry): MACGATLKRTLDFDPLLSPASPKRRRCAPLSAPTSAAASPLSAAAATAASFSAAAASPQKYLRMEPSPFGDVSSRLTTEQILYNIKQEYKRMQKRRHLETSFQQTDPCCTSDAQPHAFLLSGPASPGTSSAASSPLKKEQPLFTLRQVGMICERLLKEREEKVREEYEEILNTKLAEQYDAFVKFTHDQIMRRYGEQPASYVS
row,Variant,effect of a mutation on the interaction
1,A180T,with no effect

# Variants of: B2
# Conditions: with ttc32_human TTC32, Q5I0X7
# ttc32_human TTC32, Q5I0X7, sequence (Q5I0X7 whole entry): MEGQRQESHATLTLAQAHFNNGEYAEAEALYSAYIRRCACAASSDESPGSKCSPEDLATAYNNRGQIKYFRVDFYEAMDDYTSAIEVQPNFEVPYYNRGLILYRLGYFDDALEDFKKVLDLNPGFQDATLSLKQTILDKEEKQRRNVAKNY
row,Variant,effect of a mutation on the interaction
1,L387F,with no effect

# Variants of: B2
# Conditions: with ccnc_human CCNC
row,Variant,effect of a mutation on the interaction
1,L387F,with no effect

# Variants of: B3
# Conditions: with zsc32_human ZSCAN32, Q9NX65
# zsc32_human ZSCAN32, Q9NX65, sequence (Q9NX65 whole entry): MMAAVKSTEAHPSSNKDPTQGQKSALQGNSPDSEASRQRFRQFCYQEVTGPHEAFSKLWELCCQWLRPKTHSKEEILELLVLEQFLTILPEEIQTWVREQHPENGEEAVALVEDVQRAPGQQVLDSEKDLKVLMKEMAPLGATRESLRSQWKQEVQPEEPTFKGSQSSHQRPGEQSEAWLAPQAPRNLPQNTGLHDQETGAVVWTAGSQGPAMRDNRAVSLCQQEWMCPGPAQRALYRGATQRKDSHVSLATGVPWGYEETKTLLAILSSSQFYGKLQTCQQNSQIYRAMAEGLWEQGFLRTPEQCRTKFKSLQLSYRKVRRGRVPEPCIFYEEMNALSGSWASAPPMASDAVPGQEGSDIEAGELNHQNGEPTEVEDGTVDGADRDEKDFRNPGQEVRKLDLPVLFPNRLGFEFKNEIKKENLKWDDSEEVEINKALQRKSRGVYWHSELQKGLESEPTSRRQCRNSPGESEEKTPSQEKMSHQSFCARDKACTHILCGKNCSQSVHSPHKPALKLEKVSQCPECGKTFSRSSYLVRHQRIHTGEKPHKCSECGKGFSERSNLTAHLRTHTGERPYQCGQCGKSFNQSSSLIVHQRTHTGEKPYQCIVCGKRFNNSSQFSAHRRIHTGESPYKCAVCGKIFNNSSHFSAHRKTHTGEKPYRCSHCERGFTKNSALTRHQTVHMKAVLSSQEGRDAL
row,Variant,effect of a mutation on the interaction
1,S33F,with no effect
2,L22F,with no effect
3,G79R,with no effect

# Variants of: B3
# Conditions: with zksc7_human ZKSCAN7, Q9P0L1
# zksc7_human ZKSCAN7, Q9P0L1, sequence (Q9P0L1 whole entry): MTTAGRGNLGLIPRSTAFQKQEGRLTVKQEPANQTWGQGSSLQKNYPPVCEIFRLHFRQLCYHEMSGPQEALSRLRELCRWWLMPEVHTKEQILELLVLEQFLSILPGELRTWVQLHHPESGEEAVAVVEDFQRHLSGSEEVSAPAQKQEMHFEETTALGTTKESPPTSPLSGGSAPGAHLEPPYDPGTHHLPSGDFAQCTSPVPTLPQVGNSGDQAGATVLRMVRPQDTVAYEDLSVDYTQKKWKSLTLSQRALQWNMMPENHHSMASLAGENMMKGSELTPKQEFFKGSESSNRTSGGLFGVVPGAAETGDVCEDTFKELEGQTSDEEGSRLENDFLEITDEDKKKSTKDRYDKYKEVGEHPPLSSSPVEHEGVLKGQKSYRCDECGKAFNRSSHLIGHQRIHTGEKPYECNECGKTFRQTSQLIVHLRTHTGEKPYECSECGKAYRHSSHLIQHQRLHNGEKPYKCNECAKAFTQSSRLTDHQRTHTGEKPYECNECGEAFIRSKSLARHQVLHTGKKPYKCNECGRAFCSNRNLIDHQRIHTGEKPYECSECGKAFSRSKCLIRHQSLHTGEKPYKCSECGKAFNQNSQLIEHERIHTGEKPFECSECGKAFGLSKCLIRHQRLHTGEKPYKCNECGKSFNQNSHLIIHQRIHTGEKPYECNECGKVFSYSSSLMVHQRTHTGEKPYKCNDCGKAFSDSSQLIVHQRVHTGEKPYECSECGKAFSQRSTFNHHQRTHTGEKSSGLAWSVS
row,Variant,effect of a mutation on the interaction
1,S33F,with no effect
2,L22F,with no effect
3,G79R,with no effect

# Variants of: B3
# Conditions: with znf24_human ZNF24, P17028
# znf24_human ZNF24, P17028, sequence (P17028 whole entry): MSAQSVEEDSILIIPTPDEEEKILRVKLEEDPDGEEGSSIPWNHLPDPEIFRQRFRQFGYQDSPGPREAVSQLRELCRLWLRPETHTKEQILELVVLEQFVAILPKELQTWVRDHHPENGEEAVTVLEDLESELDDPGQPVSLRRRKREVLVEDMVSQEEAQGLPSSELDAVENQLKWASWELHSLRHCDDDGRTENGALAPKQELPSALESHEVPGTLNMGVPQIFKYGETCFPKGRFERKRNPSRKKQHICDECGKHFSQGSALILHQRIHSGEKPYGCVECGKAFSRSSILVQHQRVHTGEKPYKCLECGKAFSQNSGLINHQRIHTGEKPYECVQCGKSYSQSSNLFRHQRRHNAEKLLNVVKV
row,Variant,effect of a mutation on the interaction
1,S33F,with no effect
2,L22F,with no effect
3,G79R,disrupting interaction strength

# Variants of: B3
# Conditions: with zn496_human ZNF496, Q96IT1
# zn496_human ZNF496, Q96IT1, sequence (Q96IT1 whole entry): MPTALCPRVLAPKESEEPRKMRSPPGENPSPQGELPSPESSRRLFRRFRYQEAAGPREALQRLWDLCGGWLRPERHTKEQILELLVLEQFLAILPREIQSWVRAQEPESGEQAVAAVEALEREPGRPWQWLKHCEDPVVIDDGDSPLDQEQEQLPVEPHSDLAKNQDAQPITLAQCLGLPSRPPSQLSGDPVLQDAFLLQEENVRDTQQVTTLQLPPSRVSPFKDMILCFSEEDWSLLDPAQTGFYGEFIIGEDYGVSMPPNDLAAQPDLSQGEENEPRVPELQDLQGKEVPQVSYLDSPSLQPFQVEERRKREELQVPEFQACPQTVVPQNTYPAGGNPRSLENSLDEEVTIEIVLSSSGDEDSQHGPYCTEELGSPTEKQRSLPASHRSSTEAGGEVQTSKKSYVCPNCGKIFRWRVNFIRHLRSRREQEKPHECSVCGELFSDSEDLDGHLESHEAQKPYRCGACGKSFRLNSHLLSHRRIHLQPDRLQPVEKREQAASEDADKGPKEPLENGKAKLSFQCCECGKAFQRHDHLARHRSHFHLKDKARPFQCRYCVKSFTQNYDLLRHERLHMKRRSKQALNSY
row,Variant,effect of a mutation on the interaction
1,S33F,with no effect
2,L22F,with no effect
3,G79R,with no effect
